Legend:
[1] = molecular target: T1, 0N4 R tau P301 mutated to alanine (human, UniProt P10636 1-758); experiment: flow cytometry on fixed, permeabilised Expi293 cells expressing the mutant, 10 µg/ml VR7082
T1 construct: also called P301A
Protocol: (§1) Upon receipt of the constructs, single constructs were transiently transfected into Expi293 cells (Thermo-Fisher) according to the instructions from the manufacturer. The cells were incubated at 38° C., shaking at 220 RPM, in a humidified 5% CO2 environment. Following a 48 hour incubation, the cells were harvested via centrifugation at 350 G(av) for 10 minutes. The cells were fixed and permeabilized with Invitrogens Fix and Perm kit, according to the instructions from the manufacturers. […] The cells were incubated on ice for 30 minutes before being washed in PBS+1% BSA and resuspended in 50 μl/well.
(§2) The cells were run on an IQue3 and tau containing cells were gated via the alexa-488 fluorescence from HT7 and tau binding assessed via alexa-647 staining. The data was normalised and expressed as a percentage of the binding signal observed for not-mutated tau.

[2] = molecular target: T2, 0N4 R tau G302 mutated to alanine (human, UniProt P10636 1-758); experiment: as above
T2 construct: also called G302A
T2 sequence (P10636 other isoform, or with tags, fused parts or gaps limits assumed, stated change not applied): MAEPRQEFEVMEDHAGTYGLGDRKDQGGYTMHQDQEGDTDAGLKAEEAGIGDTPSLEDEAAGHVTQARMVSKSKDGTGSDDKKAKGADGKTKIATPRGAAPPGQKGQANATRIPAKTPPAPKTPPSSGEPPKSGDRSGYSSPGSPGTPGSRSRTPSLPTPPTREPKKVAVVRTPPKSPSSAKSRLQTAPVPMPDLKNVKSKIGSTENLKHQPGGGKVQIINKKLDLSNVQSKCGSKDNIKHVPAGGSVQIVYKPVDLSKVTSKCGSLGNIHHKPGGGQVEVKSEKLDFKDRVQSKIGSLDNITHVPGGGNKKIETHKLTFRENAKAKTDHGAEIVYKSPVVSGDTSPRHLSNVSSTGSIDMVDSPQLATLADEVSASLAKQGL
Protocol: as §1, §2

0N3 R tau [3] = molecular target: T3, 0N3 R tau (human, UniProt P10636-2 1-352); experiment: ELISA, antibody titrated about 3 to 10000 ng/ml on tau isoform coated directly onto the plate, OD 630 nm
T3 construct: Used as recombinant protein (ELISA), overexpressed in cells (flow cytometry, Western blot, immunofluorescence) and native in iPSC derived neurons; also called 3 R tau (iPSC derived neurons express 0N3 R tau)
T3 sequence (P10636 other isoform, or with tags, fused parts or gaps limits assumed): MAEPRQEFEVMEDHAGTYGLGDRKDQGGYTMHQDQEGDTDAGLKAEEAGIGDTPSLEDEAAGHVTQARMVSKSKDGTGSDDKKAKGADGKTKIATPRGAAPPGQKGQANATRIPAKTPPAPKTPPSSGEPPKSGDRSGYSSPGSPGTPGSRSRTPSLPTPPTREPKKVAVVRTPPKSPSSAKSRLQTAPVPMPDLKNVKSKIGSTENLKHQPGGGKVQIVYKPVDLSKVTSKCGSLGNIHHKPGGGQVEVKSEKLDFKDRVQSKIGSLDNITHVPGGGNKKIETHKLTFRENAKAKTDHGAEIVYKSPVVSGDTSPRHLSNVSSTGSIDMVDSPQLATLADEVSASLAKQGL

1N3 R tau [4] = molecular target: T4, 1N3 R tau (human, UniProt P10636-4 1-381); experiment: as above
T4 construct: One of the six recombinantly expressed tau isoforms
T4 sequence (P10636 other isoform, or with tags, fused parts or gaps limits assumed): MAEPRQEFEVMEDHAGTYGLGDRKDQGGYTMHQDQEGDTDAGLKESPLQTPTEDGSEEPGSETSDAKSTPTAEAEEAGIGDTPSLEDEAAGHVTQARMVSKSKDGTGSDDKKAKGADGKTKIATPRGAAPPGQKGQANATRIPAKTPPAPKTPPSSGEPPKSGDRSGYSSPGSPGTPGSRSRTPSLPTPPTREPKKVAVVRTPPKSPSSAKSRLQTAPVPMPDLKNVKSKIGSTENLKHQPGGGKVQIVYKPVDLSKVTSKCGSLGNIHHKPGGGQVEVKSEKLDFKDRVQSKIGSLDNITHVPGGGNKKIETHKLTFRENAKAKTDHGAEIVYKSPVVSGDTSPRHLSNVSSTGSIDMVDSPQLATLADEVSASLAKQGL

2N3 R tau [5] = molecular target: T5, 2N3 R tau (human, UniProt P10636-5 1-410); experiment: as above
T5 construct: One of the six recombinantly expressed tau isoforms
T5 sequence (P10636 other isoform, or with tags, fused parts or gaps limits assumed): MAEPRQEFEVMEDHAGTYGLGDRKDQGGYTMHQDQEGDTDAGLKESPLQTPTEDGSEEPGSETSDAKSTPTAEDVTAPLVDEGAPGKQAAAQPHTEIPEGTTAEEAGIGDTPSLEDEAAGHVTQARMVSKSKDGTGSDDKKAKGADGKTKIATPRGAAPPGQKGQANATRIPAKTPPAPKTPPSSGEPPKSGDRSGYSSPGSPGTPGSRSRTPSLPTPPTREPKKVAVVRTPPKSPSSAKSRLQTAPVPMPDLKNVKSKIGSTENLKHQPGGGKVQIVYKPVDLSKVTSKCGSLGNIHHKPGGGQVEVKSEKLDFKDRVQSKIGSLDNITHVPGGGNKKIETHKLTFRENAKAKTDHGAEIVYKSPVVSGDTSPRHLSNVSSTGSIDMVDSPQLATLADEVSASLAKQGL

1N4 R tau [6] = molecular target: T6, 1N4 R tau (human, UniProt P10636-7 1-412); experiment: as above
T6 construct: One of the six recombinantly expressed tau isoforms
T6 sequence (P10636 other isoform, or with tags, fused parts or gaps limits assumed): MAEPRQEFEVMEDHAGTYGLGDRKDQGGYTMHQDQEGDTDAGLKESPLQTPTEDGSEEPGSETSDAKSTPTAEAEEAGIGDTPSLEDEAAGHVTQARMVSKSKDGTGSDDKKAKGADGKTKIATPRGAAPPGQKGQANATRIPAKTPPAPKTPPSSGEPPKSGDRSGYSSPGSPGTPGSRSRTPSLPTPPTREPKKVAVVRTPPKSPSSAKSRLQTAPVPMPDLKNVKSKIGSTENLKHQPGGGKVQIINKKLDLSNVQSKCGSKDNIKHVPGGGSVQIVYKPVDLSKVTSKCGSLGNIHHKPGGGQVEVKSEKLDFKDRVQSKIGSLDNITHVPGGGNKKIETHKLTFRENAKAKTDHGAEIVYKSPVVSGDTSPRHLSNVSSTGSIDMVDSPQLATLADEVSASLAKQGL

2N4 R tau [7] = molecular target: T7, 2N4 R tau (human, UniProt P10636 2-758); experiment: as above
T7 construct: also called largest human isoform of tau
T7 sequence (P10636 other isoform, or with tags, fused parts or gaps limits assumed): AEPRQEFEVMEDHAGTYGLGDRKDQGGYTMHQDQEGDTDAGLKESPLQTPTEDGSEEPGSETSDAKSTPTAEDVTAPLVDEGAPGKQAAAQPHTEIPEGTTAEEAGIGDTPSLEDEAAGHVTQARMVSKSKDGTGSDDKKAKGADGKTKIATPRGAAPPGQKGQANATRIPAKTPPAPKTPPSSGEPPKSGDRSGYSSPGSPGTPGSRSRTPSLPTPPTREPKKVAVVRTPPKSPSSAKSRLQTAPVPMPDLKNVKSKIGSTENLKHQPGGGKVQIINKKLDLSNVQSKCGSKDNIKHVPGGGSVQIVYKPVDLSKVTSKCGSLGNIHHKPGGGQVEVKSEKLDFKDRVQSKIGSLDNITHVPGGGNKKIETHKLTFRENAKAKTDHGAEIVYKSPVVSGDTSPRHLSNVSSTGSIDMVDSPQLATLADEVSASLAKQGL

0N3 R tau [8] = molecular target: T3, 0N3 R tau; experiment: Western blot of lysates of cells overexpressing a single tau isoform, probed with the mouse IgG format
1N3 R tau [9] = molecular target: T4, 1N3 R tau; experiment: as above
2N3 R tau [10] = molecular target: T5, 2N3 R tau; experiment: as above
1N4 R tau [11] = molecular target: T6, 1N4 R tau; experiment: as above
2N4 R tau [12] = molecular target: T7, 2N4 R tau; experiment: as above
0N3 R tau [13] = molecular target: T3, 0N3 R tau; experiment: ELISA, scFv-Ms-Fc titrated about 3 to 10000 ng/ml on coated tau isoform, OD 630 nm
1N3 R tau [14] = molecular target: T4, 1N3 R tau; experiment: as above
2N3 R tau [15] = molecular target: T5, 2N3 R tau; experiment: as above
0N4 R tau = molecular target: T8, 0N4 R tau (human, UniProt P10636-6 1-383); experiment: flow cytometry, scFv-Ms-Fc titrated about 3 to 10000 ng/ml on cells transfected with the tau isoform, mean fluorescence of transfected cells
T8 construct: Used as recombinant protein (ELISA), overexpressed in cells and native in 10+16 MAPT mutant iPSC derived neurons; also called unmutated 0N4 R tau; 4 R tau (10+16 MAPT mutant neurons express 0N4 R tau)
T8 sequence (P10636 other isoform, or with tags, fused parts or gaps limits assumed, form in doubt): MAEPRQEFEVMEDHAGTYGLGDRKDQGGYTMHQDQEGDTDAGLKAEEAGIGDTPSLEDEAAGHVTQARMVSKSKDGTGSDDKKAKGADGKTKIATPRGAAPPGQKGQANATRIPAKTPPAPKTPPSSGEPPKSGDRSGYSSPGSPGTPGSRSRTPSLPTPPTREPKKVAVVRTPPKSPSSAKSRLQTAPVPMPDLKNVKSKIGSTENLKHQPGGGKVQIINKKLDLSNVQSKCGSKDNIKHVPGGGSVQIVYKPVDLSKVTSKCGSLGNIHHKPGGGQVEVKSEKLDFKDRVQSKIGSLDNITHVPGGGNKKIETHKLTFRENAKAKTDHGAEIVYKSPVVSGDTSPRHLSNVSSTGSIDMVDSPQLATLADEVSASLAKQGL

1N4 R tau [16] = molecular target: T6, 1N4 R tau; experiment: as above
2N4 R tau [17] = molecular target: T7, 2N4 R tau; experiment: as above
2N4 R tau [18] = molecular target: T7, 2N4 R tau; experiment: ELISA, antibody titrated about 3 to 10000 ng/ml on tau isoform coated directly onto the plate, OD 630 nm; remark: listed apart in the source
0N3 R tau [19] = molecular target: T3, 0N3 R tau; experiment: flow cytometry, antibody titrated about 3 to 10000 ng/ml on cells with intracellularly expressed tau isoform, geomean AF647 of transfected cells
1N3 R tau [20] = molecular target: T4, 1N3 R tau; experiment: as above
2N3 R tau [21] = molecular target: T5, 2N3 R tau; experiment: as above
1N4 R tau [22] = molecular target: T6, 1N4 R tau; experiment: as above
1N4 R tau [23] = molecular target: T6, 1N4 R tau; experiment: Western blot of lysates of cells overexpressing a single tau isoform, probed with the mouse IgG format; remark: listed apart in the source
2N4 R tau [24] = molecular target: T7, 2N4 R tau; experiment: as above; remark: listed apart in the source

T1 sequence (P10636 other isoform, or with tags, fused parts or gaps limits assumed, stated change not applied): as the sequence (P10636 other isoform, or with tags, fused parts or gaps limits assumed, form in doubt) above, with P243A counted along it

B1: VR7082 rabbit IgG (antibody, V domains shown)
VH: QSVEESGGRLVTPGTPLTLTCTVSGIDLSNYAMIWVRQAPGEGLEYIGIISSTGNTFYATWAKGRFTISKTSTTVDLKITSPTAEDTATYFCARDTNSDSHYGWEAFNIWGPGTLVTVSS
VL: AVVLTQTPASVEAAVGGTVSINCQASEDIESYLAWYQQKPGQRPKLLIYRASTLASGVSSRFKGSGSGTEYTLTISGVECADAATYYCQEGYSIHVDNVFGGGTEVVVK
notes: Cloned and tested as full-length rabbit IgG (kappa light chain); also called clone 3; VR7082-RbIgG
binding result [1]: binds | binding result [2]: binds | binding result (0N3 R tau [3]): no binding (tested: 10000 ng/ml) | binding result (1N3 R tau [4]): no binding (tested: 10000 ng/ml) | binding result (2N3 R tau [5]): no binding (tested: 10000 ng/ml) | binding result (1N4 R tau [6]): binds | binding result (2N4 R tau [7]): binds

B2: VR7082 formatted as Mouse IgG (antibody, V domains shown)
VH: QSVEESGGRLVTPGTPLTLTCTVSGIDLSNYAMIWVRQAPGEGLEYIGIISSTGNTFYATWAKGRFTISKTSTTVDLKITSPTAEDTATYFCARDTNSDSHYGWEAFNIWGPGTLVTVSS
VL: AVVLTQTPASVEAAVGGTVSINCQASEDIESYLAWYQQKPGQRPKLLIYRASTLASGVSSRFKGSGSGTEYTLTISGVECADAATYYCQEGYSIHVDNVFGGGTEVVVK
notes: also called VR7082 mouse chimeric antibody
binding result (0N3 R tau [8]): no binding | binding result (1N3 R tau [9]): no binding | binding result (2N3 R tau [10]): no binding | binding result (1N4 R tau [11]): binds | binding result (2N4 R tau [12]): binds

B3: VR7082 scFv-Ms-Fc (Fc fusion)
scFv: MAQSVEESGGRLVTPGTPLTLTCTVSGIDLSNYAMIWVRQAPGEGLEYIGIISSTGNTFYATWAKGRFTISKTSTTVDLKITSPTAEDTATYFCARDTNSDSHYGWEAFNIWGPGTLVTVSSGGGGSGGGGSGGGGSGGGGSAVVLTQTPASVEAAVGGTVSINCQASEDIESYLAWYQQKPGQRPKLLIYRASTLASGVSSRFKGSGSGTEYTLTISGVECADAATYYCQEGYSIHVDNVFGGGTEVVVK
notes: also called scFv mouse Fc conversion of VR7082; not shown: mouse Fc
binding result (0N3 R tau [13]): no binding (tested: 10000 ng/ml) | binding result (1N3 R tau [14]): no binding (tested: 10000 ng/ml) | binding result (2N3 R tau [15]): no binding (tested: 10000 ng/ml) | EC50 (read off the curve) (0N4 R tau): ~0.6 µg/mL | EC50 (read off the curve) (1N4 R tau [16]): ~0.8 µg/mL | EC50 (read off the curve) (2N4 R tau [17]): ~0.9 µg/mL

B4: VR7081 rabbit IgG (antibody, V domains shown)
VH: QSLEESGGRLVTPGTPLTLTCTVSGFSLSNYAMIWVRQAPGGGLEWIGTMGTNGRTYYASWAKGRFTISKTSTTMDLSMTSLTAEDTATYFCARDAGITYSTYYFNIWGPGTLVTVSS
VL: AQVLTQTPASVSAAVGGTVSISCQSSPSVLNTNDLSWFQQKPGQPPKVLIYGASTLASGVPSRFKGSGSGTQFTLTISDVQCDDAATYYCAGGYDVNIDIYGFGGGTEVVVK
notes: Cloned and tested as full-length rabbit IgG (kappa light chain); also called clone 14; 3 R-specific antibody
binding result (2N4 R tau [18]): no binding (tested: 10000 ng/ml) | EC50 (read off the curve) (0N3 R tau [19]): ~0.7 µg/mL | EC50 (read off the curve) (1N3 R tau [20]): ~1 µg/mL | EC50 (read off the curve) (2N3 R tau [21]): ~0.9 µg/mL | binding result (1N4 R tau [22]): no binding (tested: 10000 ng/ml)

B5: VR7081 formatted as Mouse IgG (antibody, V domains shown)
VH: QSLEESGGRLVTPGTPLTLTCTVSGFSLSNYAMIWVRQAPGGGLEWIGTMGTNGRTYYASWAKGRFTISKTSTTMDLSMTSLTAEDTATYFCARDAGITYSTYYFNIWGPGTLVTVSS
VL: AQVLTQTPASVSAAVGGTVSISCQSSPSVLNTNDLSWFQQKPGQPPKVLIYGASTLASGVPSRFKGSGSGTQFTLTISDVQCDDAATYYCAGGYDVNIDIYGFGGGTEVVVK
notes: also called VR7081 mouse chimeric antibody
binding result (1N4 R tau [23]): no binding | binding result (2N4 R tau [24]): no binding

— patent US20240409624A1 (UCB, published 2024)
